{
  "source": "patent US20220372160A1",
  "target": "recombinant mouse CD39 (mouse) (UniProt P55772)",
  "sequence (P55772 38-478 limits assumed)": "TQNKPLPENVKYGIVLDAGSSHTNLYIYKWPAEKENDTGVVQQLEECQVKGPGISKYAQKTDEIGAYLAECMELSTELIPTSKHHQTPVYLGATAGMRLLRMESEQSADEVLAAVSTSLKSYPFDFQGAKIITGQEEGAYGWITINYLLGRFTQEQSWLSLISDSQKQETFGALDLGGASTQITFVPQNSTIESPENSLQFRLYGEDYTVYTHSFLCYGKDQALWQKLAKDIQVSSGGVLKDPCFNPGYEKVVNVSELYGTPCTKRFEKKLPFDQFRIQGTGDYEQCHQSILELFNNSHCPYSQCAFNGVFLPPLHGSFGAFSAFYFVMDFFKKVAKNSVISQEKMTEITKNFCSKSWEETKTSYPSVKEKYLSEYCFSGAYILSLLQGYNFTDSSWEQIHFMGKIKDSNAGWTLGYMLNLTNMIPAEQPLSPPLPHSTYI",
  "test": "BLI, Duha59 amine-coupled to AR2G biosensor, recombinant mouse CD39 as analyte, 1:1 model",
  "data": [
    {"substance": "rat anti-mouse CD39 Duha59 clone (antibody)", "values": [
      {"measurement": "Kd", "result": 1.09, "unit": "nM"}
    ]}
  ]
}
